Reference: US20230348630A1 (BEIJING MABWORKS BIOTECH, published 2023)
Read-outs that look alike come from different tables or passages of the source.

B1: anti-CD3/BCMA bispecific antibody MBS305-H1-KIH (bispecific antibody, human IgG1, kappa, L234A L235A, N297A)
heavy 1: QVQLVQSGAEVKKPGASVKVSCKASGYTFTNHIIHWVRQAPGQGLEWMGYINPYPGYHGYNDKFSGRATMTSDTSTSTVYMELSSLRSEDTAVYYCARDGYYRDQDVLDYWGQGTLVTVSSASTKGPSVFPLAPSSKSTSGGTAALGCLVKDYFPEPVTVSWNSGALTSGVHTFPAVLQSSGLYSLSSVVTVPSSSLGTQTYICNVNHKPSNTKVDKKVEPKSCDKTHTCPPCPAPEAAGGPSVFLFPPKPKDTLMISRTPEVTCVVVDVSHEDPEVKFNWYVDGVEVHNAKTKPREEQYASTYRVVSVLTVLHQDWLNGKEYKCKVSNKALPAPIEKTISKAKGQPREPQVYTLPPSREEMTKNQVSLSCAVKGFYPSDIAVEWESNGQPENNYKTTPPVLDSDGSFFLVSKLTVDKSRWQQGNVFSCSVMHEALHNHYTQKSLSLSPGK
light 1: not shown
heavy 2: QVQLVQSGAEVKKPGASVKVSCKASGYTFTNHIIHWVRQAPGQGLEWMGYINPYPGYHGYNDKFSGRATMTSDTSTSTVYMELSSLRSEDTAVYYCARDGYYRDQDVLDYWGQGTLVTVSSGGGGSGGGGSGGGGSGGGGSDIQMTQSPSSLSASVGDRVTITCKASQDISQYLNWYQQKPGKAPKLLIYYTSGLHPGVPSRFSGSGSGTDFTFTISSLEPEDEATYYCQQGYALPWTFGQGTKLTAKRGGGGSGGGGSGGGGSEVQLVESGGGLVQPGRSLRLSCAASGFTFSDYTMHWVRQAPGKGLEWVSGISWNTGTIGYADSVKGRFTISRDNAKKSLYLQMNSLRAEDTALYYCAKDNSGYGHYYFGMDVWGQGTTVTVASASTKGPSVFPLAPSSKSTSGGTAALGCLVKDYFPEPVTVSWNSGALTSGVHTFPAVLQSSGLYSLSSVVTVPSSSLGTQTYICNVNHKPSNTKVDKKVEPKSCDKTHTCPPCPAPEAAGGPSVFLFPPKPKDTLMISRTPEVTCVVVDVSHEDPEVKFNWYVDGVEVHNAKTKPREEQYASTYRVVSVLTVLHQDWLNGKEYKCKVSNKALPAPIEKTISKAKGQPREPQVYTLPPSREEMTKNQVSLWCLVKGFYPSDIAVEWESNGQPENNYKTTPPVLDSDGSFFLYSKLTVDKSRWQQGNVFSCSVMHEALHNHYTQKSLSLSPGK
light 2: not shown
B2: anti-CD3/BCMA bispecific antibody MBS305-H2-KIH (bispecific antibody, human IgG1, kappa, L234A L235A, N297A)
heavy 1: QVQLVQSGAEVKKPGASVKVSCKASGYTFTNHIIHWVRQAPGQGLEWMGYINPYPGYHGYNDKFSGRATMTSDTSTSTVYMELSSLRSEDTAVYYCARDGYYRDQDVLDYWGQGTLVTVSSASTKGPSVFPLAPSSKSTSGGTAALGCLVKDYFPEPVTVSWNSGALTSGVHTFPAVLQSSGLYSLSSVVTVPSSSLGTQTYICNVNHKPSNTKVDKKVEPKSCDKTHTCPPCPAPEAAGGPSVFLFPPKPKDTLMISRTPEVTCVVVDVSHEDPEVKFNWYVDGVEVHNAKTKPREEQYASTYRVVSVLTVLHQDWLNGKEYKCKVSNKALPAPIEKTISKAKGQPREPQVYTLPPSREEMTKNQVSLSCAVKGFYPSDIAVEWESNGQPENNYKTTPPVLDSDGSFFLVSKLTVDKSRWQQGNVFSCSVMHEALHNHYTQKSLSLSPGK
light 1: not shown
heavy 2: QVQLVQSGAEVKKPGASVKVSCKASGYTFTNHIIHWVRQAPGQGLEWMGYINPYPGYHGYNDKFSGRATMTSDTSTSTVYMELSSLRSEDTAVYYCARDGYYRDQDVLDYWGQGTLVTVSSGGGGSGGGGSGGGGSGGGGSDIQMTQSPSSLSASVGDRVTITCKASQDISQYLNWYQQKPGKAPKLLIYYTSGLHPGVPSRFSGSGSGTDFTFTISSLEPEDEATYYCQQGYALPWTFGQGTKLTAKRGGGGSGGGGSGGGGSEVQLVESGGGLVQPGRSLRLSCAASGFTFDDFAMHWVRQAPGKGLEWVSGITWNSGSVGYADSVKGRFTISRDNAKKSLYLQMNSLRAEDTALYYCAKDRSGYGHYYYGMDVWGQGTTVTVASASTKGPSVFPLAPSSKSTSGGTAALGCLVKDYFPEPVTVSWNSGALTSGVHTFPAVLQSSGLYSLSSVVTVPSSSLGTQTYICNVNHKPSNTKVDKKVEPKSCDKTHTCPPCPAPEAAGGPSVFLFPPKPKDTLMISRTPEVTCVVVDVSHEDPEVKFNWYVDGVEVHNAKTKPREEQYASTYRVVSVLTVLHQDWLNGKEYKCKVSNKALPAPIEKTISKAKGQPREPQVYTLPPSREEMTKNQVSLWCLVKGFYPSDIAVEWESNGQPENNYKTTPPVLDSDGSFFLYSKLTVDKSRWQQGNVFSCSVMHEALHNHYTQKSLSLSPGK
light 2: not shown
B3: anti-CD3D&E antibody D8E5, full-length human IgG1 (L234A/L235A/N297A)/kappa (antibody, V domains shown)
VH: EVQLVESGGGLVQPGRSLRLSCAASGFTFDSYSMHWVRQAPGKGLEWVSGISWNSGSLGYADSVKGRFTISRDNAKKSLYLQMNSLRAEDTALYYCAKDRSGYGHYYYGMDVWGQGTTVTVAS
VL: EIVMTQSPATLSVSPGERATLSCRASRSVSLNVAWYQQKPGQAPRLLIYGASTKYTGIPARFSGSGSGTEFTLTISSLQSEDFAVYYCQQYINWPLTFGGGTKVEIKR
B4: anti-CD3D&E antibody 7-1A12, full-length human IgG1 (L234A/L235A/N297A)/kappa (antibody, V domains shown)
VH: EVQLVESGGGLVQPGRSLRLSCAASGFTFSDYTMHWVRQAPGKGLEWVSGISWNTGTIGYADSVKGRFTISRDNAKKSLYLQMNSLRAEDTALYYCAKDNSGYGHYYFGMDVWGQGTTVTVAS
VL: EIVMTQSPATLSVSPGERATLSCRASQSVSRNVAWYQQKPGQAPRLLIYGASTRQTGIPARFSGSGSGTEFTLTISSLQSEDFAVYYCQSYINWPLQFGGGTKVEIKR

Experiments:
[1] = target: T1, human BCMA on HEK293A/human BCMA cells (human, UniProt Q02223 1-184); test: flow cytometry on HEK293A/human BCMA cells
T1 sequence: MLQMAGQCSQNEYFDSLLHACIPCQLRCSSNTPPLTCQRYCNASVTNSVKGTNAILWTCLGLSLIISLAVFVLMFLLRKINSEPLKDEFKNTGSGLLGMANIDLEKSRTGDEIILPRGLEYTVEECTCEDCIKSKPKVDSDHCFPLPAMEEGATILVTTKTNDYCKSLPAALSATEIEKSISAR
Protocol: (§1) The anti-BCMA antibody's binding capability to cell surface BCMAs was tested by FACS. Briefly, HEK293A/human BCMA cells, HEK293A/monkey BCMA cells and HEK293A/mouse BCMA cells, as generated in Example 1, were collected, digested with trypsin, and subjected to centrifugation at 300 g for 5 min. The cells were suspended in PBS, and subjected to centrifugation again. The cells were re-suspended in PBS with 2% FBS at the cell density at 4×10⁶/ml, and 50 μl cells were seeded onto a U-bottom plate. […] The plate was washed with 2% FBS-PBS for three times, added with 50 μl PE-labeled goat-anti-human IgG (H+L) (1: 500), and incubated at room temperature for 45 min. The plate was washed with 2% FBS-PBS again for three times, and added with 150 μl 2% FBS-PBS to suspend the cells. The plate was measured for cell fluorescence using a cytometry, and the data was processed with FlowJo and analyzed with GraphPad.
(§2) Following the protocol of Example 6, the bispecific antibodies of the disclosure were tested for their binding capability to the HEK293A/human BCMA cells, HEK293A/monkey BCMA cells, and HEK293A/mouse BCMA cells as generated in Example 1.

[2] = target: T2, BCMA-his protein (Cat #: BCA-H522y, ACRO) (human, UniProt Q02223 1-54); test: SPR (BIAcore 8K), protocol of Example 5
T2 construct: Bought recombinant protein; the construct is most likely only a soluble part of it; also called BCMA protein; human BCMA
T2 sequence: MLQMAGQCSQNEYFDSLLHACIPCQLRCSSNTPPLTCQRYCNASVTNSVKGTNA
Protocol: (§3) Following the protocols in Example 5 and Example 10, the bispecific antibodies of the disclosure were tested for their binding affinity to CD3D&E and human BCMA.

[3] = target: T3, CD3D&E protein (Cat #: CT038-H2508H, Sino Biological) (human, UniProt P04234 22-105; P07766 23-126); test: SPR (BIAcore 8K), protocol of Example 10
T3 construct: Bought complex of the delta and epsilon chains; also called CD3D&E complex; human CD3D&E complex
Protocol: as §3

[4] = target: monkey BCMA on HEK293A/monkey BCMA cells (monkey, UniProt Q02223 1-184 (human entry)); test: flow cytometry on HEK293A/monkey BCMA cells
Protocol: as §1, §2

[5] = target: T2, BCMA-his protein (Cat #: BCA-H522y, …); test: ELISA, coated BCMA protein
Protocol: Briefly, an ELISA plate was coated with 100 μl 1 μg/ml BCMA protein (Cat #: BCA-H522y, ACRO) in PBS overnight at 4° C. Then, the plate was blocked with 250 μl PBST with 4% skimmed milk at room temperature for 1 h. […] The negative control well was added with PBST instead of the antibody. The plate was washed with PBST for three times, added with 100 μl HRP conjugated goat anti-human IgG (1:7000, Cat #: 31413, thermofisher), and incubated at room temperature for 1 h. The plate was washed again with PBST for four times, added with 100 μl freshly prepared TMB (Cat #: 555214, BD, USA), and left still for color development, which was terminated with 50 μl 10% H₂SO₄. The absorbance was read at 450 nm, and the data was processed and analyzed using GraphPad.
(§4) The purified bispecific antibodies were tested for their binding capability to recombinant human CD3 and human BCMA proteins by ELISA, following the protocols in Example 4 and Example 9.

[6] = target: T3, CD3D&E protein (Cat #: CT038-H2508H, …); test: ELISA, coated CD3D&E
Protocol: as §4

CD3 on Jurkat cells [7] = target: T4, CD3 on Jurkat cells (UniProt P04234 22-171; P07766 23-207); test: flow cytometry on Jurkat cells
T4 construct: whole, on cells
Protocol: (§5) Jurkat cells were collected, centrifuged at 300 g for 5 min, and suspended in PBS. After another centrifugation, the cells were suspended in 2% FBS-PBS at the cell density of 3×10⁶/ml, and […] were plated onto a U-bottom plate. The plate was added with 50 μl serially diluted anti-CD3 antibodies of the disclosure in 2% FBS-PBS (4-fold dilution, starting at 20 μg/ml), and incubated at room temperature for 1 h. The plate was washed with 2% FBS-PBS for three times, added with 50 μl PE-labeled goat-anti-human IgG (H+L) (1: 500), and incubated at room temperature for 45 min. The plate was washed with 2% FBS-PBS again for three times, and added with 150 μl 2% FBS-PBS to suspend the cells. The plate was measured for cell fluorescence using a cytometry, and the data was processed with FlowJo and analyzed with GraphPad.
Following the protocol of Example 11, the bispecific antibodies of the disclosure were tested for their binding capability to Jurkat cells.

[8] = target: T5, mouse BCMA on HEK293A/mouse BCMA cells (mouse, UniProt O88472 1-185); test: flow cytometry on HEK293A/mouse BCMA cells [continued) E]
T5 sequence: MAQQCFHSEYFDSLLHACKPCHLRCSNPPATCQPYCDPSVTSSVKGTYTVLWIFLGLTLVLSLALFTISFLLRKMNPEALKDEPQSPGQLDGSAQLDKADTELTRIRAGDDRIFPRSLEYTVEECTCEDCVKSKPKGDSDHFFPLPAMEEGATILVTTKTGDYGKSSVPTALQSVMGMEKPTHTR
Protocol: as §1, §2

CD3 on Jurkat cells [9] = target: T4, CD3 on Jurkat cells; test: flow cytometry on Jurkat cells; remark: listed apart in the source
Protocol: as §5

[10] = target: T3, CD3D&E protein (Cat #: CT038-H2508H, …); test: SPR (BIAcore 8K), antibody captured by anti-human Fc, CD3D&E as analyte
Protocol: Briefly, the mouse anti-human Fc antibodies were coupled to a CM5 biosensor chip. The anti-CD3 antibodies of the disclosure in the HBS-EP buffer (Cat #: BR-1006-69, GE Life Sciences) at the concentration of 1 μg/ml was flowed through the chip, where about 100 RU of the antibodies were captured by the mouse anti-human Fc antibodies. Serially diluted CD3D&E molecules (Cat #: CT038-H2508H, Sino Biological) in the HBS-EP buffer (Cat #: BR-1006-69, GE Life Sciences) (2-fold dilution starting at 20 μg/ml) were respectively flowed through the chip. Chip regeneration was performed with 3 M MgCl₂.

[11] = target: T3, CD3D&E protein (Cat #: CT038-H2508H, …); test: ELISA, coated CD3D&E; remark: listed apart in the source

T3 sequence (P04234 22-105, form in doubt, chain 1 of 2): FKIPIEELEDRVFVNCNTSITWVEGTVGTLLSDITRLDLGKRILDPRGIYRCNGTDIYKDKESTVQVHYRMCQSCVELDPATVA
T3 sequence (P07766 23-126, form in doubt, chain 2 of 2): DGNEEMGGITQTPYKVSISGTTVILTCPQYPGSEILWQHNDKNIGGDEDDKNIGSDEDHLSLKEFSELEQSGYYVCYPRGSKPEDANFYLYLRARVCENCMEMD
T4 sequence (P04234 22-171, chain 1 of 2): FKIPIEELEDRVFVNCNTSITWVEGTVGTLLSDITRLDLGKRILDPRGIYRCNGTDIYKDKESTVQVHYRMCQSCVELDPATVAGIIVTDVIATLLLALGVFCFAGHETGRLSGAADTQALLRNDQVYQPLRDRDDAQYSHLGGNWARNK
T4 sequence (P07766 23-207, chain 2 of 2): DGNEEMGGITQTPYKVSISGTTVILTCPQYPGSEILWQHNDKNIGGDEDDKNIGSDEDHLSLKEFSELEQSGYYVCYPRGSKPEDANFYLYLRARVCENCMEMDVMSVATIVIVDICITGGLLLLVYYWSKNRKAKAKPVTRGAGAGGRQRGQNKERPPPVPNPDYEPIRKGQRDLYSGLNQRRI
Sequence of monkey BCMA on HEK293A/monkey BCMA cells (Q02223 other isoform, or with tags, fused parts or gaps): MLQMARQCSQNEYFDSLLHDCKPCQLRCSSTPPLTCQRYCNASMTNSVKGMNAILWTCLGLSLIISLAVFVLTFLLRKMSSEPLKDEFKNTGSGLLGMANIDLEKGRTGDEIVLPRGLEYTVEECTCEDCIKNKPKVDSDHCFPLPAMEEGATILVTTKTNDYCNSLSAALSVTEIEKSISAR

Row | Binder | EC50 [1] [µg/mL] | Kd [2] [nM] | Kd [3] [nM] | EC50 [4] [µg/mL] | EC50 [5] [µg/mL] | EC50 [6] [µg/mL] | EC50 (CD3 on Jurkat cells [7]) [µg/mL] | EC50 (read off the curve) (CD3 on Jurkat cells [7]) [µg/mL] | binding result [8] | EC50 (CD3 on Jurkat cells [9]) [µg/mL] | Kd [10] [nM] | EC50 [11] [µg/mL]
1 | B1 | 0.221 | 0.168 | 8.09 | 0.337 | 0.0117 | 0.0468 | 0.00173 | ~2 | no binding (tested: about 30000 ng/ml (LOG10 about 4.5)) | – | – | –
2 | B2 | 0.285 | 0.206 | 256 | 0.373 | 0.0124 | 0.141 | 0.00328 | – | no binding (tested: about 30000 ng/ml (LOG10 about 4.5)) | – | – | –
3 | B3 | – | – | – | – | – | – | – | – | – | 0.0411 | 30 | 0.00816
4 | B4 | – | – | – | – | – | – | – | – | – | 0.119 | 6.54 | 0.00402
